{
  "source": "the DeepSol protein solubility set",
  "experiment": "soluble on expression in E. coli; label from the status in PepcDB or PDB records",
  "data": [
    {"sequence": "RMEMVEIGGIQQALYIRGQNADNPIILWVHGGPGNSMMPFLHLYQYEWENDFTVVNWDQRNVGKTYFANDPAAVLQTMSAERVLQDVHEVTAYLKQEFNKEKIILIGHSWGTVLGTMAVQTYPEDYSAYIGIAQTVNMVDNERVGYEKTLEMVKAAGKQKDIKALEAIAPYPPAKYGPSYLAALMTVRTYQSKYGLSINMDLGNIISILATPYYSLRELKNTAIFNPNAIDNQGDVLRFLVEEADIRNYGVDYQVPVYYIMGENDYNSPYLPAKKFFDEIVAPDKQIFFIPDADHLPFLSKKAEFDCVLLE", "values": [
      {"measurement": "soluble on expression in E. coli", "value": "not soluble"}
    ]},
    {"sequence": "MGHHHHHHSHMCSWASYMTNSPTLIVMIGLPARGKTYVSKKLTRYLNWIGVPTKVFNLGVYRREAVKSYKSYDFFRHDNEEAMKIRKQCALVALEDVKAYLTEENGQIAVFDATNTTRERRDMILNFAEQNSFKVFFVESVCDDPDVIAANILEVKVSSPDYPERNRENVMEDFLKRIECYKVTYRPLDPDNYDKDLSFIKVINVGQRFLVNRVQDYIQSKIVYYLMNIHVQPRTIYLCRHGESEFN", "values": [
      {"measurement": "soluble on expression in E. coli", "value": "soluble"}
    ]},
    {"sequence": "MGSDKIHHHHHHMEIIAHRGFRGRYPEMTAQAYEKACELPIHGVECDVRLTADGHLACVHDRTLLRIASCGLVVSTATMDQLREHGIITLDELIDILPEDKHLYIETKHPMRYGVMAEEQVALRLRYRGLLHDPRFHLISFSHAAIRRMGRIAPGFDTIYLRREWELRYNPKDFAISRPSAWGLSLAHAKIRPQLIGRDGKKTYMWTVNDADDVRWARDNGVQLLATDYPDVALEALAQ", "values": [
      {"measurement": "soluble on expression in E. coli", "value": "not soluble"}
    ]},
    {"sequence": "EGLPVLAPVTKDTATSLYTIPFHDGASLVLDVAGLLVWSTCEGGQSPAEIACSSPTCLLANAYPAPGCPAPSCGSDRHDKPCTAYPSNPVTGACAAGSLFHTRFAANTTDGNKPVSEVNVRVLAACAPSKLLASLPRGSTGVAGLAGSGLALPSQVASAQKVPNKFLLCLPTGGPGVAIFGGGPLPWPQFTQSMDYTPLVAKGGSPAHYISARSIKVENTRVPISERALATGGVMLSTRLPYVLLRRDVYRPLVDAFTKALAAQPANGAPVARAVKPVAPFELCYDTKTLGNNPGGYWVPNVLLELDGGSDWAMTGKNSMVDVKPGTACVAFVEMKGVDAGDGSAPAVILGGAQMEDFVLDFDMEKKRLGFLRLPHFTGCSSFNFARST", "values": [
      {"measurement": "soluble on expression in E. coli", "value": "soluble"}
    ]},
    {"sequence": "SLRYSKLTMLIPCALLLSACTTVTPAYKDNGTRSGPCVEGGPDNVAQQFYDYRILHRSNDITALRPYLSDKLATLLSDASRDNNHRELLTNDPFSSRTTLPDSAHVASASTIPNRDARNIPLRVDLKQGDQGWQDEVLMIQEGQCWVIDDVRYLGGSVHATAGTLRQSIENR", "values": [
      {"measurement": "soluble on expression in E. coli", "value": "not soluble"}
    ]},
    {"sequence": "MGSDKIHHHHHHMSSEEDYFDELEYDLADEVNEEKEDIQTKKLTTVNCQTEKFNPFEILPESIELFRTLALISPDRLSLSETAQILPKIVDLKRILQQQEIDFIKLLPFFNEIIPLIKSNIKLMHNFLISLYSRRFPELSSLIPSPLQYSKVISILENENYSKNESDELFFHLENKAKLTREQILVLTMSMKTSFKNKEPLDIKTRTQILEANSILENLWKLQEDIGQYIASKISIIAPNVCFLVGPEIAAQLIAHAGGVLEFSRIPSCNIASIGKNKHLSHELHTLESGVRQEGYLFASDMIQKFPVSVHKQMLRMLCAKVSLAARVDAGQKNGDRNTVLAHKWKAELSKKARKLSEAPSISETKALPIPEDQPKKKRAGRKFRKYKEKFRLSHVRQLQNRMEFGKQEQTVLDSYGEEVGLGMSNTSLQQAVGATSGSRRSAGNQAKLTKVMKHRISEANQQADEFLISLGHNTEQPNLSPEMVQMHKKQHTNPEEETNWFSGHG", "values": [
      {"measurement": "soluble on expression in E. coli", "value": "not soluble"}
    ]},
    {"sequence": "VKIDNKTFQVNGRVLLDDLTEEFGIEFDDSEDIDTIGGWLQSRNTNLQKDDYVDTTYDRWVVSEIDNHQIIWVILNYEFNEARPTIGQSDEDEKSE", "values": [
      {"measurement": "soluble on expression in E. coli", "value": "not soluble"}
    ]},
    {"sequence": "MGSSHHHHHHSSGLVPRGSHMESAIGEHLQCPRTLTRRVPDTYTPPFPMWVGRADDALQQVVMGYLGVQFRDEDQRPAALQAMRDIVAGFDLPDGPAHHDLTHHIDNQGYENLIVVGYWKDVSSQHRWSTSTPIASWWESEDRLSDGLGFFREIVAPRAEQFETLYAFQEDLPGVGAVMDGISGEINEHGYWGSMRERFPISQTDWMQASGELRVIAGDPAVGGRVVVRGHDNIALIRSGQDWADAEADERSLYLDEILPTLQSGMDFLRDNGPAVGCYSNRFVRNIDIDGNFLDLSYNIGHWASLDQLERWSESHPTHLRIFTTFFRVAAGLSKLRLYHEVSVFDAADQLYEYINCHPGTGMLRDAVTIAEH", "values": [
      {"measurement": "soluble on expression in E. coli", "value": "soluble"}
    ]},
    {"sequence": "SVQNPVEVSCSLQTQIFVFTPGASSVTIIWWVCFLTSVSMSAQTSPAEKGLNPGLMCQESYACSGTDEAIFECDECCSLQCLRCEEELHRQERLRNHERIRLKPGHVPYCDLCKGLSGHLPGVRQRAIVRCQTCKINLCLECQKRTHSGGNKRRHPVTVYNVSNLQESLEAEEMDEETKRKKMTEKVVSFLLVDENEEIQVTNEEDFIRKLDCKPDQHLKVVSIFGNTGDGKSHTLNHTFFYGREVFKTSPTQESCTVGVWAAYDPVHKVAVIDTEGLLGATVNLSQRTRLLLKVLAISDLVIYRTHADRLHNDLFKFLGDASEAYLKHFTKELKATTARCGLDVPLSTLGPAVIIFHETVHTQLLGSDHPSEVPEKLIQDRFRKLGRFPEAFSSIHYKGTRTYNPPTDFSGLRRALEQLLENNTTRSPRHPGVIFKALKALSDRFSGEIPDDQMAHSSFFPDEYFTCSSLCLSCGVGCKKSMNHGKEGVPHEAKSRCRYSHQYDNRVYTCKACYERGEEVSVVPKTSASTDSPWMGLAKYAWSGYVIECPNCGVVYRSRQYWFGNQDPVDTVVRTEIVHVWPGTDGFLKDNNNAAQRLLDGMNFMAQSVSELSLGPTKAVTSWLTDQIAPAYWRPNSQILSCNKCATSFKDNDTKHHCRACGEGFCDSCSSKTRPVPERGWGPAPVRVCDNCYEARNVQLAVTEAQVDDEGGTLIARKVGEAVQNTLGAVVTAIDIPLGLVKDAARPAYWVPDHEILHCHNCRKEFSIKLSKHHCRACGQGFCDECSHDRRAVPSRGWDHPVRVCFNCNKKPGDL", "values": [
      {"measurement": "soluble on expression in E. coli", "value": "soluble"}
    ]},
    {"sequence": "MAYLVAVTACVSGVAHTYMAAERLEKLCLLEKWGVSIETQGALGTENRLADEDIRRADVALLITDIELAGAERFEHCRYVQCSIYAFLREPQRVMSAVRKVLSAPQQTHLILE", "values": [
      {"measurement": "soluble on expression in E. coli", "value": "soluble"}
    ]},
    {"sequence": "MSLVKIKEVAMNIKINEIKMTPPTAFTPGQVIEEQEVISPSMLALQELQETTGAALYETMEEIGMALSGKLRENYKFTDAEKLERRQQALLRLIKQIQEDNGATLRPLTEENSDPDLQNAYQIIALAMALTAGGLSKKKKRDLQSQLDTLTAEEGWELAVFSLLELGEVDTATLSSLKRFMQQAIDNDEMPLSQWFRRVADWPDRCERVRILLRAVAFELSICIEPSEQSRLAAALVRLRRLLLFLGLEKECQREEWICQLPPNTLLPLLLDIICERWLFSDWLLDRLTAIVSSSKMFNRLLQQLDAQFMLIPDNCFNDEDQREQILETLREVKINQVLFEGHHHHHH", "values": [
      {"measurement": "soluble on expression in E. coli", "value": "soluble"}
    ]},
    {"sequence": "AWVDQTPRTITKETGESLTIKCVLKDHSCGLSSTTWYRTQLGSTNEKTISIGGRYDETVDKGSKSFSLRISDLRVEDSGTYKCQADYSPSCYSYPSLESAVEGAGTVLTVK", "values": [
      {"measurement": "soluble on expression in E. coli", "value": "soluble"}
    ]},
    {"sequence": "MGSDKIHHHHHHMKASVIIPAYNSKERLYNSLLSLNQQECDEEFEVIVADNGSEDGTLSMLESFQADFPLIFTRIKENRGIAYGRNQALRNARGDILIFHDSDMLAAKDLVAKHIKAHENEENLVVCGLFWKRIYSFYYERFEEEHKEQLAKLTGEMPKKDKQKLLEEADIKNGSFLDKSFDLDTDFIDVLKKILDEYGDDLKGYHMPWRFFITNNSSVKRKHVVDLGLFDEGIVRYGFEDYDLGIRLHQAGLTFRLRRDIVSVHQEHPSNCKSVDDIRANIAYMCDKYNNIRSLDVHLAFNGPFPPDMTNRIMADIQKLLESQKYDMLLNLFLELLHVVKERNIDPDWRKKSPRVTAKSFDLQTVRKLLPKAKKKLGVNDFANALYALVNDLLHVDLRSLDVV", "values": [
      {"measurement": "soluble on expression in E. coli", "value": "not soluble"}
    ]}
  ]
}
